Test results: patent EP0659766A1

Biological target: T1, IL-1 receptors expressed on murine thymoma EL4 cells (murine) (UniProt P13504)
T1 sequence (looked up): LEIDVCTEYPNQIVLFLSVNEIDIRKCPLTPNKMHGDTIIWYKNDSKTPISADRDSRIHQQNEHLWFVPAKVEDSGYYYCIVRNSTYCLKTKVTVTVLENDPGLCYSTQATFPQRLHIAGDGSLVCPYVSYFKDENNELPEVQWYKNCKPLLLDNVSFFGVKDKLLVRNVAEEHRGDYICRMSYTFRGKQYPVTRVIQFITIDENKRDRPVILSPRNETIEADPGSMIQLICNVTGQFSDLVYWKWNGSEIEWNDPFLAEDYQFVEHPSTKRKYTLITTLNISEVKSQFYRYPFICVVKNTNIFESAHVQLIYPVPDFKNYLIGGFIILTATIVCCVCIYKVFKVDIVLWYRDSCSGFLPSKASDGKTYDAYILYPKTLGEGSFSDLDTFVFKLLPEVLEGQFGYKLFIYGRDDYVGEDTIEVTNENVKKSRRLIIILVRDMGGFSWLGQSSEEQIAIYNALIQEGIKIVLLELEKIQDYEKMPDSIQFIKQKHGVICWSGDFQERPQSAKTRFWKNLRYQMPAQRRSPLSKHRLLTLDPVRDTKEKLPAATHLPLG
Assay: binding of 70 pM human ¹²⁵I-IL-1α to 1 x 10⁶ EL4 cells, no serum

B1: recombinant human IL-1 alpha (IL-1α) (ligand, UniProt P01583 113-271, looked up)
chain: SAPFSFLSNVKYNFMRIIKYEFILNDALNQSIIRANDQYLTAAALHNLDEAVKFDMGAYKSSKDDAKITVILRISKTQLYVTAQDEDQPVLLKEMPEIPKTITGSETNLLFFWETHGTKNYFTSVAHPNLFIATKQDYWVCLAGGPPSITDFQILENQA
- ¹²⁵I-IL-1α bound to EL4 cells (cpm): 4520 cpm
